These results are taken from patent US20120171240A1 (UNIVERSITY OF LOUISVILLE RESEARCH FOUNDATION, published 2012).

In assay [1] the target is human CD40 receptor (human, UniProt P25942 21-277). In words: cell-based or functional assay.
Assay [2] concerns the target 4-1BB receptor on mouse T cells (mouse) (UniProt P20334). Put plainly: cell-based or functional assay.

Sequence of human CD40 receptor (P25942 21-277): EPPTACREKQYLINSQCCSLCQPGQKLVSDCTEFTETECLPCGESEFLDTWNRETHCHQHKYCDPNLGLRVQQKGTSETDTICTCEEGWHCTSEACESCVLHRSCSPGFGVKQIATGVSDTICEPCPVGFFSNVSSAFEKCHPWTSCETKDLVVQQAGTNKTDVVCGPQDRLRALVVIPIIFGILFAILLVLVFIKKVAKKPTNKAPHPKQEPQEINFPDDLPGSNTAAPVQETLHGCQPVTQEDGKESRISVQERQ
Sequence of 4-1BB receptor on mouse T cells (mouse) (P20334 24-256): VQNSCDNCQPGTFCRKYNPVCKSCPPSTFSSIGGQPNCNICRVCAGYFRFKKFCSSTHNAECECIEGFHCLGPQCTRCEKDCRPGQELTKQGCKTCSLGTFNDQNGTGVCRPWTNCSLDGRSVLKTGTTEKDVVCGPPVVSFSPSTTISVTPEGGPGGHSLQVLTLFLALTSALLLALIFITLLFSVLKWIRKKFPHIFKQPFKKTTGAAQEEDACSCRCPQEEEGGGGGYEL

“commercially available trimeric recombinant human CD40L (rhsCD40L) (from UniProt P29965 116-261) (ligand)” returned an iNOS production, Western blot, IFN-γ primed CD40KO-human CD40 macrophages in assay [1] of 6 fold.

In assay [2], CSA-4-1BBL fusion protein (ligand) registered a proliferation of CFSE-labeled CD4+CD25- (SP) T cells, percent dividing of 60% and a proliferation of SP T cells in co-culture with CD4+CD25+ (DP) Treg cells, percent dividing of 34%.

B1: CSA-hCD40L (fusion of core streptavidin and the extracellular domain of human CD40L) (ligand)
chain: RSHHHHHHITGTWYNQLGSTFIVTAGADGALTGTYESAVGNAESRYVLTGRYDSAPATDGSGTALGWTVAWKNNYRNAHSATTWSGQYVGGAEARINTQWLLTSGATEANAWKSTLVGHDTFTKVKPSAASSEFLDKIEDERNLHEDFVFMKTIQRCNTGERSLSLLNCEEIKSQFEGFVKDIMLNKEETKKENSFEMQKGDQNPQIAAHVISEASSKTTSVLQWAEKGYYTMSNNLVTLENGKQLTVKRQGLYYIYAQVTFCSNREASSQAPFIASLCLKSPGRFERILLRAANTHSSAKPCGQQSIHLGGVFELQPGASVFVNVTDPSQVSHGTGFTSFGLLKL
For B1, in assay [1], the “IL-6 mRNA, RNAse protection assay, murine CD40KO macrophage line expressing human CD40” value came to 2.8 fold; the “human IL-10 production (printed so; summed up as IL-1β) by human monocytes, ELISA, 18 h” value amounted to 5 fold; the “iNOS production, Western blot, IFN-γ primed CD40KO-human CD40 macrophages” value came out at 9 fold.
